Test results: paper PMC8831599, “Defining molecular glues with a dual-nanobody cannabidiol sensor” (Nature Communications, 2022)
Each block holds one binder with its values, some of them ahead of it. Ends that are not written are not given here.

Experiments:
Conditions in all cases: both partners purified
His-DDB1–CRBN complex = target: T1, His-DDB1–CRBN complex (human, UniProt Q96SW2 41-442; Q16531 1-1140); experiment: AlphaScreen or HTRF; competition without pomalidomide: 0.9 nM His-DDB1–CRBN on acceptor beads, 8.3 nM biotinylated IKZF1 ZF2-3 on donor beads, label-free IKZF1 ZF2-3 titrated
T1 construct: human cereblon (CRBN) lacking residues 1-40; human DDB1; Held on AlphaScreen acceptor beads by the His-tag; source: Hi5 insect cells, co-expressed, purified (Ni-NTA); not shown: His-Msb-tag, N-terminal, kept

GST-TIR1-ASK1 complex [1] = target: T2, GST-TIR1-ASK1 complex (Arabidopsis thaliana, UniProt Q570C0 1-594; Q39255 1-160); experiment: AlphaScreen or HTRF; competition without auxin: 0.9 nM GST-TIR1 on acceptor beads, 8.3 nM biotinylated IAA7 degron peptide on donor beads, label-free IAA7 degron peptide titrated
T2 construct: F-box protein TIR1, Arabidopsis thaliana; ASK1 (SKP1 homologue), Arabidopsis thaliana; also called GST-tagged TIR1
T2 sequence (looked up) 1: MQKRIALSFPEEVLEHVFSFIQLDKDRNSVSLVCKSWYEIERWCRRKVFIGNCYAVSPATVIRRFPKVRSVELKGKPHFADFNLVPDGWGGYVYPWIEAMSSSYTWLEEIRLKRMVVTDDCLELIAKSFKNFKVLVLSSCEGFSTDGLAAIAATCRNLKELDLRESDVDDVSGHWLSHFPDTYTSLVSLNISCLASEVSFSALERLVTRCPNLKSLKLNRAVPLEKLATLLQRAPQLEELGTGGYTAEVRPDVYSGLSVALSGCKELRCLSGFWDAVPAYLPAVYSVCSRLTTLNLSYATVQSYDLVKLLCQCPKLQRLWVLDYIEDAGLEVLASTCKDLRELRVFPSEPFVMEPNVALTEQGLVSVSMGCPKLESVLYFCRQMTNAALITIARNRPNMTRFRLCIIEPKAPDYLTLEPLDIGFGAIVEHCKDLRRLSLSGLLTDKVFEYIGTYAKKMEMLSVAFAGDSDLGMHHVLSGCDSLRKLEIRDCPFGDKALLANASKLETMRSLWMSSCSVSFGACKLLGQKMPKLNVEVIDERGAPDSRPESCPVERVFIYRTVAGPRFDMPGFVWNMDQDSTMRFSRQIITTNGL
T2 sequence (looked up) 2: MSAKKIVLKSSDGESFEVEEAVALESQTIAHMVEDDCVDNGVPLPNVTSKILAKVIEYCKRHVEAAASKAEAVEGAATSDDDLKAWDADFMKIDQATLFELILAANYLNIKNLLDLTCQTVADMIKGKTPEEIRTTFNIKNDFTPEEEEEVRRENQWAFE

GST-TIR1-ASK1 complex [2] = target: T2, GST-TIR1-ASK1 complex; experiment: BLI; TIR1 and IAA7 degron without auxin; biotinylated IAA7 on streptavidin probe or GST-TIR1 on anti-GST probe (not told which); 30 °C; 25 mM HEPES pH 7.4, 100 mM NaCl, 1 mM TCEP, 0.1% Tween-20, 0.05 mg/mL BSA
[3] = target: T3, DDB1-CRBN complex (CRBN Δ1-40 with full-length DDB1), tag-free (human, UniProt Q96SW2 41-442; Q16531 1-1140); experiment: BLI; biotinylated IKZF1 ZF2-3 or CK1α on streptavidin probe, tag-free DDB1–CRBN as analyte, no IMiD; 30 °C; 25 mM HEPES pH 7.4, 100 mM NaCl, 1 mM TCEP, 0.1% Tween-20, 0.05 mg/mL BSA
T3 construct: human cereblon (CRBN) lacking residues 1-40; human DDB1; also called CRBN–DDB1 complex; CRBN in complex with full-length DDB1; source: Hi5 insect cells, co-expressed, purified (Ni-NTA, TEV, anion exchange, SEC); not shown: SUMO-tag, N-terminal, cleaved; His-Msb-tag, N-terminal, cleaved

IC50 (His-DDB1–CRBN complex): 200 to 300 nM
B1: Label-free IKZF1 ZF2-3 (141-196) (domain or fragment, human, UniProt Q13422 141-196, looked up)
chain: GERPFQCNQCGASFTQKGNLLRHIKLHSGEKPFKCHLCNYACRRRDALTGHLRTHS
notes: human IKZF1 (Ikaros), zinc fingers 2-3, residues 141-196; also called Avi-IKZF1^ZF2-3; not shown: GST, N-terminal, cleaved

IC50 (GST-TIR1-ASK1 complex [1]): 18000 to 20000 nM
Kd (GST-TIR1-ASK1 complex [2]): 18500 nM
B2: IAA7 degron peptide, non-labeled (peptide)
chain: QVVGWPPVRNYRK
modifications: synthetic peptide, unlabelled; limits not given, taken from the IAA7 degron peptide of the TIR1-ASK1 crystal structures (13-mer, PDB 2P1Q)

Kd [3]: 2300 nM
B3: Biotin-labeled Avi-CK1α (enzyme, human, UniProt P48729 1-337, looked up)
chain: MASSSGSKAEFIVGGKYKLVRKIGSGSFGDIYLAINITNGEEVAVKLESQKARHPQLLYESKLYKILQGGVGIPHIRWYGQEKDYNVLVMDLLGPSLEDLFNFCSRRFTMKTVLMLADQMISRIEYVHTKNFIHRDIKPDNFLMGIGRHCNKLFLIDFGLAKKYRDNRTRQHIPYREDKNLTGTARYASINAHLGIEQSRRDDMESLGYVLMYFNRTSLPWQGLKAATKKQKYEKISEKKMSTPVEVLCKGFPAEFAMYLNYCRGLRFEEAPDYMYLRQLFRILFRTLNHQYDYTFDWTMLKQKAAQQAASSSGQGQQAQTPTGKQTDKTKSNMKGF
modifications: biotin on the Avi-tag (BirA-catalyzed)
notes: human casein kinase 1 alpha (CK1α); also called CK1a; source: Hi5 insect cells, purified (Ni-NTA, TEV, cation exchange, SEC, BirA biotinylation, SEC); not shown: His-Set3, N-terminal, cleaved; Avi-tag, N-terminal, kept

Kd [3]: 223 nM
B4: Biotin-labeled Avi-IKZF1 ZF2-3 (141-196) (domain or fragment, human, UniProt Q13422 141-196, looked up)
chain: {Avi‑tag(biotin)}-GERPFQCNQCGASFTQKGNLLRHIKLHSGEKPFKCHLCNYACRRRDALTGHLRTHS
modifications: cysteine pairing not given here
notes: human IKZF1 (Ikaros), zinc fingers 2-3, residues 141-196; also called biotinylated IKZF1^ZF2-3; not shown: GST, N-terminal, cleaved; Avi-tag, N-terminal, kept
